According to US20040203002:
Read-outs that look alike come from different tables or passages of the source.

Experiments:
[1] = molecular target: Zif268 finger 2 variant LRHN finger 2 alpha-helix variant LRHN (full helix only in FIG. 1D) (Mus musculus) (UniProt P08046); assay: ELONA; settings: [none]; apparent Kd, phage ELISA, PBS/Zn, RT
[2] = molecular target: Zif268 finger 2 variant KASN finger 2 alpha-helix variant KASN (full helix only in FIG. 1D) (Mus musculus) (UniProt P08046); assay: ELONA; settings: [none]; apparent Kd, phage ELISA, PBS/Zn, RT
[3] = molecular target: Zif268 finger 2 variant REDV finger 2 alpha-helix variant REDV (full helix only in FIG. 1D) (Mus musculus) (UniProt P08046); settings: [none]
[4] = molecular target: Zif268 finger 2 variant RGPD finger 2 alpha-helix variant RGPD (full helix only in FIG. 1D) (Mus musculus) (UniProt P08046); settings: [none]
[5] = molecular target: Zif268 finger 2 variant KASN finger 2 alpha-helix variant KASN (full helix only in FIG. 1D) (Mus musculus) (UniProt P08046); settings: [none]
[6] = molecular target: Zif268 finger 2 variant LRHN finger 2 alpha-helix variant LRHN (full helix only in FIG. 1D) (Mus musculus) (UniProt P08046); settings: [none]
[7] = molecular target: Zif268 finger 2 variant REDV finger 2 alpha-helix variant REDV (full helix only in FIG. 1D) (Mus musculus) (UniProt P08046); assay: ELONA; settings: [none]; apparent Kd, phage ELISA, PBS/Zn, RT
[8] = molecular target: Zif268 finger 2 variant RGPD finger 2 alpha-helix variant RGPD (full helix only in FIG. 1D) (Mus musculus) (UniProt P08046); assay: ELONA; settings: [none]; apparent Kd, phage ELISA, PBS/Zn, RT
[9] = molecular target: Zif268 wildtype (three zinc fingers, phage displayed) (Mus musculus) (UniProt P08046); assay: ELONA; settings: apparent non-equilibrium Kd, phage ELISA, all values scaled to this one (3.0 nM); PBS/Zn, milk, Tween 20, salmon testes DNA, RT
[10] = apparent Kd interpolated from microarray signal 0.063
[11] = apparent Kd interpolated from microarray signal 0.122

TATATAGCGAATGCGTATATATCAAGTCAATCGGTCC (double strand) [Zif268 site AAT]
Kd [1]: 110 nM
Kd [2]: 250 nM

TATATAGCGACGGCGTATATATCAAGTCAATCGGTCC (double strand) [Zif268 site ACG]
Kd [3, 10]: 1700 nM
Kd ([4]; apparent Kd interpolated from microarray signal 0.143): 690 nM

TATATAGCGACTGCGTATATATCAAGTCAATCGGTCC (double strand) [Zif268 site ACT]
Kd ([5]; apparent Kd interpolated from microarray signal 0.949): 260 nM
Kd ([6]; apparent Kd interpolated from microarray signal 0.342): 160 nM

TATATAGCGAGTGCGTATATATCAAGTCAATCGGTCC (double strand) [Zif268 site AGT]
Kd ([5]; apparent Kd interpolated from microarray signal 0.862): 320 nM
Kd ([6]; apparent Kd interpolated from microarray signal 0.449): 93 nM

TATATAGCGATGGCGTATATATCAAGTCAATCGGTCC (double strand) [Zif268 site ATG]
Kd ([3]; apparent Kd interpolated from microarray signal 0.069): 1600 nM
Kd ([4]; apparent Kd interpolated from microarray signal 0.136): 720 nM

TATATAGCGATTGCGTATATATCAAGTCAATCGGTCC (double strand) [Zif268 site ATT]
Kd ([5]; apparent Kd interpolated from microarray signal 0.942): 270 nM
Kd [1]: 240 nM

TATATAGCGCAGGCGTATATATCAAGTCAATCGGTCC (double strand) [Zif268 site CAG]
Kd ([3]; apparent Kd interpolated from microarray signal 0.056): 1800 nM
Kd ([4]; apparent Kd interpolated from microarray signal 0.105): 820 nM

TATATAGCGCATGCGTATATATCAAGTCAATCGGTCC (double strand) [Zif268 site CAT]
Kd [1]: 120 nM

TATATAGCGCCCGCGTATATATCAAGTCAATCGGTCC (double strand) [Zif268 site CCC]
Kd [3, 10]: 1700 nM
Kd ([4]; apparent Kd interpolated from microarray signal 0.119): 770 nM

TATATAGCGCCGGCGTATATATCAAGTCAATCGGTCC (double strand) [Zif268 site CCG]
Kd [7]: 880 nM
Kd [8]: 250 nM

TATATAGCGCCTGCGTATATATCAAGTCAATCGGTCC (double strand) [Zif268 site CCT]
Kd ([5]; apparent Kd interpolated from microarray signal 0.974): 250 nM
Kd ([6]; apparent Kd interpolated from microarray signal 0.298): 200 nM

TATATAGCGCGCGCGTATATATCAAGTCAATCGGTCC (double strand) [Zif268 site CGC]
Kd ([5]; apparent Kd interpolated from microarray signal 0.774): 390 nM

TATATAGCGCGGGCGTATATATCAAGTCAATCGGTCC (double strand) [Zif268 site CGG]
Kd [2]: 1460 nM

TATATAGCGCGTGCGTATATATCAAGTCAATCGGTCC (double strand) [Zif268 site CGT]
Kd ([5]; apparent Kd interpolated from microarray signal 0.848): 330 nM
Kd ([6]; apparent Kd interpolated from microarray signal 0.330): 170 nM

TATATAGCGCTCGCGTATATATCAAGTCAATCGGTCC (double strand) [Zif268 site CTC]
Kd ([3]; apparent Kd interpolated from microarray signal 0.058): 1800 nM
Kd [4, 11]: 760 nM

TATATAGCGGAAGCGTATATATCAAGTCAATCGGTCC (double strand) [Zif268 site GAA]
Kd ([5]; apparent Kd interpolated from microarray signal 0.697): 1000 nM

TATATAGCGGACGCGTATATATCAAGTCAATCGGTCC (double strand) [Zif268 site GAC]
Kd ([5]; apparent Kd interpolated from microarray signal 0.652): 1300 nM

TATATAGCGGAGGCGTATATATCAAGTCAATCGGTCC (double strand) [Zif268 site GAG]
Kd ([3]; apparent Kd interpolated from microarray signal 0.120): 690 nM
Kd ([4]; apparent Kd interpolated from microarray signal 0.151): 670 nM

TATATAGCGGATGCGTATATATCAAGTCAATCGGTCC (double strand) [Zif268 site GAT]
Kd ([6]; apparent Kd interpolated from microarray signal 0.500): 72 nM

TATATAGCGGCAGCGTATATATCAAGTCAATCGGTCC (double strand) [Zif268 site GCA]
Kd ([3]; apparent Kd interpolated from microarray signal 0.108): 1300 nM
Kd ([4]; apparent Kd interpolated from microarray signal 0.216): 510 nM

TATATAGCGGCCGCGTATATATCAAGTCAATCGGTCC (double strand) [Zif268 site GCC]
Kd ([3]; apparent Kd interpolated from microarray signal 0.084): 1500 nM
Kd [8]: 600 nM

TATATAGCGGCGGCGTATATATCAAGTCAATCGGTCC (double strand) [Zif268 site GCG]
Kd [7]: 11 nM
Kd [8]: 17 nM

TATATAGCGGCTGCGTATATATCAAGTCAATCGGTCC (double strand) [Zif268 site GCT]
Kd ([3]; apparent Kd interpolated from microarray signal 0.077): 1600 nM
Kd ([4]; apparent Kd interpolated from microarray signal 0.406): 220 nM

TATATAGCGGGCGCGTATATATCAAGTCAATCGGTCC (double strand) [Zif268 site GGC]
Kd ([5]; apparent Kd interpolated from microarray signal 0.636): 1400 nM

TATATAGCGGGGGCGTATATATCAAGTCAATCGGTCC (double strand) [Zif268 site GGG]
Kd ([5]; apparent Kd interpolated from microarray signal 0.612): 1700 nM
Kd [3, 11]: 1100 nM
Kd ([4]; apparent Kd interpolated from microarray signal 0.118): 770 nM

TATATAGCGGGTGCGTATATATCAAGTCAATCGGTCC (double strand) [Zif268 site GGT]
Kd ([5]; apparent Kd interpolated from microarray signal 0.616): 1600 nM
Kd ([6]; apparent Kd interpolated from microarray signal 0.238): 260 nM

TATATAGCGGTGGCGTATATATCAAGTCAATCGGTCC (double strand) [Zif268 site GTG]
Kd ([4]; apparent Kd interpolated from microarray signal 0.175): 610 nM
Kd [7]: 11 nM

TATATAGCGTACGCGTATATATCAAGTCAATCGGTCC (double strand) [Zif268 site TAC]
Kd ([6]; apparent Kd interpolated from microarray signal 0.329): 170 nM

TATATAGCGTAGGCGTATATATCAAGTCAATCGGTCC (double strand) [Zif268 site TAG]
Kd [1]: 110 nM
Kd [2]: 390 nM

TATATAGCGTATGCGTATATATCAAGTCAATCGGTCC (double strand) [Zif268 site TAT]
Kd [1]: 6.3 nM
Kd [2]: 270 nM

TATATAGCGTCTGCGTATATATCAAGTCAATCGGTCC (double strand) [Zif268 site TCT]
Kd ([3]; apparent Kd interpolated from microarray signal 0.083): 1500 nM
Kd ([4]; apparent Kd interpolated from microarray signal 0.146): 690 nM

TATATAGCGTGGGCGTATATATCAAGTCAATCGGTCC (double strand) [Zif268 site TGG]
Kd [9]: 3 nM

TATATAGCGTGTGCGTATATATCAAGTCAATCGGTCC (double strand) [Zif268 site TGT]
Kd ([5]; apparent Kd interpolated from microarray signal 0.856): 320 nM
Kd ([6]; apparent Kd interpolated from microarray signal 0.384): 130 nM
